Data from ChEMBL document CHEMBL1156801, “Using NMR solvent water relaxation to investigate metalloenzyme-ligand binding interactions” (J Med Chem, 2010).

Legend:
[1] = substrate: CC[C@H](C)[C@H](NC(=O)[C@@H](NC(=O)[C@H](CC(=O)O)NC(=O)CNC(=O)[C@H](C)NC(=O)[C@H](C)NC(=O)[C@@H]1CCCN1C(=O)[C@H](C)NC(=O)[C@H](CC(C)C)NC(=O)[C@H](CC(C)C)NC(=O)[C@@H](NC(=O)[C@H](CC(C)C)NC(=O)[C@H](C)NC(=O)[C@@H](N)CC(=O)O)[C@@H](C)O)[C@@H](C)O)C(=O)N[C@H](C(=O)N[C@@H](CO)C(=O)N[C@@H](CC(C)C)C(=O)N[C@@H](CC(=O)O)C(=O)N[C@@H](Cc1ccccc1)C(=O)O)[C@@H](C)CC; assay: (§1) Hydroxylation activity of human PHD2
[2] = substrate: CC[C@H](C)[C@H](NC(=O)[C@H](Cc1ccc(O)cc1)NC(=O)[C@@H]1CCCN1C(=O)[C@H](C)NC(=O)[C@H](CC(C)C)NC(=O)[C@H](CCSC)NC(=O)[C@H](CCC(=O)O)NC(=O)[C@H](CC(C)C)NC(=O)[C@H](CC(=O)O)NC(=O)[C@H](CC(C)C)NC(=O)[C@@H](N)CC(=O)O)C(=O)N1CCC[C@H]1C(=O)N[C@@H](CCSC)C(=O)N[C@@H](CC(=O)O)C(=O)N[C@@H](CC(=O)O)C(=O)N[C@@H](CC(=O)O)C(=O)N[C@@H](Cc1ccccc1)C(=O)N[C@@H](CCC(N)=O)C(=O)N[C@@H](CC(C)C)C(=O)O; assay: as §1

B1: Egl nine homolog 1 (Homo sapiens), Q9GZT9 (protein)
chain: MANDSGGPGGPSPSERDRQYCELCGKMENLLRCSRCRSSFYCCKEHQRQDWKKHKLVCQGSEGALGHGVGPHQHSGPAPPAAVPPPRAGAREPRKAAARRDNASGDAAKGKVKAKPPADPAAAASPCRAAAGGQGSAVAAEAEPGKEEPPARSSLFQEKANLYPPSNTPGDALSPGGGLRPNGQTKPLPALKLALEYIVPCMNKHGICVVDDFLGKETGQQIGDEVRALHDTGKFTDGQLVSQKSDSSKDIRGDKITWIEGKEPGCETIGLLMSSMDDLIRHCNGKLGSYKINGRTKAMVACYPGNGTGYVRHVDNPNGDGRCVTCIYYLNKDWDAKVSGGILRIFPEGKAQFADIEPKFDRLLFFWSDRRNPHEVQPAYATRYAITVWYFDADERARAKVKYLTGEKGVRVELNKPSDSVGKDVF
Km [1]: 44 µM
Km [2]: 37 µM
